Target: concanavalin A
Assay: SEC; Superdex 200 Increase 10/300 GL, 50 mM Tris, 150 mM NaCl, 100 mM glucose; molecular weight calibrated with a gel filtration calibration kit

stoichiometry N: 4
Substance: concanavalin A (natural protein)

From paper PMC6588694
